Details in all cases: both partners purified
Assay [1] concerns the target T1, 10x-His-GFP-TAX1BP1 (UniProt Q86VP1 1-789).
T1 construct: TAX1BP1, full-length (FL); also called GFP-TAX1BP1 FL; recombinant TAX1BP1; source: Sf9 insect cells (pLIB vector, baculovirus), purified; not shown: GFP, N-terminal, kept
As to the kind of experiment: peptide or protein array; entire NBR1 sequence spotted as 12 aa peptides on a membrane; GFP-TAX1BP1 at 50 µg/ml in SEC buffer, 2 h at RT; detection by western blot. (Immunoblotting shows a protein as a band on a membrane.)

Assay [2] concerns the target T2, 10x-His-mCherry-TAX1BP1 (UniProt Q86VP1 1-789).
T2 construct: TAX1BP1, full-length (FL); also called mCh-TAX1BP1; mCherry-TAX1BP1 FL; source: Sf9 insect cells (pLIB vector, baculovirus), purified; not shown: mCherry, N-terminal, kept
As to the kind of experiment: microscopy-based protein interaction assay; mCherry-TAX1BP1 on RFP-trap beads, GFP-tagged NBR1 fragment CC2-LIR1 as prey.

For assay [3], the target named is T3, GFP-NBR1 (purified) (UniProt Q14596 1-966).
T3 construct: NBR1; source: HEK293 (pCAGGSsH-C vector, VBCF ProTech facility), purified; not shown: GFP, N-terminal, kept
T3 sequence (looked up): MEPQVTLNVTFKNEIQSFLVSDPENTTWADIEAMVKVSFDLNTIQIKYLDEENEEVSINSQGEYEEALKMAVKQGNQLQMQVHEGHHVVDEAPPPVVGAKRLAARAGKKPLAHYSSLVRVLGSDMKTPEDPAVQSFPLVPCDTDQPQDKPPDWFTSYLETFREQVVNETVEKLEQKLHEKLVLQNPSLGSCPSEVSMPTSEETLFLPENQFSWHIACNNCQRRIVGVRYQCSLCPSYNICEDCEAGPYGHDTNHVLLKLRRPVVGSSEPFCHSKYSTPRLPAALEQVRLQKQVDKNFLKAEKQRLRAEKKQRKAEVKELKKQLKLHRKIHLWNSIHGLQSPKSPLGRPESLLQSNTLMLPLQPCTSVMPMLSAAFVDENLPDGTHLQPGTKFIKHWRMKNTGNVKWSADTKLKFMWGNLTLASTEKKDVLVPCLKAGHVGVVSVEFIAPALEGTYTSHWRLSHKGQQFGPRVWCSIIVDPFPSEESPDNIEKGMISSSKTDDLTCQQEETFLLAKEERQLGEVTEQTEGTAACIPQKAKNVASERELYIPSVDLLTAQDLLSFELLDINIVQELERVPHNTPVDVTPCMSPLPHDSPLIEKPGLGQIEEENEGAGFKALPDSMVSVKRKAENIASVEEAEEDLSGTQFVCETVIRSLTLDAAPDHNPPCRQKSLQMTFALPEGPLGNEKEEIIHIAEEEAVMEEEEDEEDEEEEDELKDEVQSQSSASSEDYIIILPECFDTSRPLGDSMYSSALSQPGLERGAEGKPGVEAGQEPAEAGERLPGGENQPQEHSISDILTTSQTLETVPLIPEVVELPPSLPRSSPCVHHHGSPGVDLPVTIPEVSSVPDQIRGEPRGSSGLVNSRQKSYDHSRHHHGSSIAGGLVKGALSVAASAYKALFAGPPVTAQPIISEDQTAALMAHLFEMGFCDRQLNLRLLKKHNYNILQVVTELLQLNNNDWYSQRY
Put plainly: microscopy-based protein interaction assay; GST-TAX1BP1 (FL, N-domain, point mutants; 2.5 µM) as bait on GSH beads, 1 µM GFP-NBR1 as prey; SEC buffer (25 mM HEPES pH 7.5, 150 mM NaCl, 1 mM DTT); 15-30 min at RT; confocal imaging of the beads.

T1 sequence (Q86VP1 whole entry): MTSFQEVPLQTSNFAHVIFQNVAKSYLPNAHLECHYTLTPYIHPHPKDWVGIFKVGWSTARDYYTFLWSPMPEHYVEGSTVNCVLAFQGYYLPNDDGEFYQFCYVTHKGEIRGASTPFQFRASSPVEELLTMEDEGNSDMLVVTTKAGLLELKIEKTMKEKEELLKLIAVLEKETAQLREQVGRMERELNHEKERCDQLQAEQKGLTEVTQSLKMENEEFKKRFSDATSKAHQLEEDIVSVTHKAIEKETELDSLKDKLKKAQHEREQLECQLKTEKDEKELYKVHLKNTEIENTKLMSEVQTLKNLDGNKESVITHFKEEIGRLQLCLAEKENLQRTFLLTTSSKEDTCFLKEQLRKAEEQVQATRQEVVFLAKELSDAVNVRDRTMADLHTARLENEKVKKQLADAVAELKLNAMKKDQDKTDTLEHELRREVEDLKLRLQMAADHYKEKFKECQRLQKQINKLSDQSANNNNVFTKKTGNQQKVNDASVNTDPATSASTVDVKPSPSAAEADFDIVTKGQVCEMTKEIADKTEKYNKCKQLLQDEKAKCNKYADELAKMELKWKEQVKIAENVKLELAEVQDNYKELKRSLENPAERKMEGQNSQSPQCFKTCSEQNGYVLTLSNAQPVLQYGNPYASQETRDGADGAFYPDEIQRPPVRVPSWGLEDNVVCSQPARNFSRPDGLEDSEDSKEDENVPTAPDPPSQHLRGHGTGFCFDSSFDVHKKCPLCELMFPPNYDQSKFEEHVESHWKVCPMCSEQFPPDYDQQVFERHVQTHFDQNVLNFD
T2 sequence (Q86VP1 whole entry): as above

B1: NBR1 peptides of binding region 2 (aa731-aa749) (peptide, UniProt Q14596 731-749, looked up)
peptide: DYIIILPECFDTSRPLGDS
notes: NBR1 aa731-749, covered by overlapping 12 aa spots of the peptide array; source: synthetic peptides spotted on a membrane (Peptide Synthesis facility of the IMP)
As to B1, the binding result in assay [1] is “binds”.

B2: NBR1 peptides of binding region 1 (aa347-aa365) (peptide, UniProt Q14596 347-365, looked up)
peptide: RPESLLQSNTLMLPLQPCT
notes: NBR1 aa347-365, covered by overlapping 12 aa spots of the peptide array; also called parts of the FW domain; source: synthetic peptides spotted on a membrane (Peptide Synthesis facility of the IMP)
On to B2, for which, in assay [1], the binding result is on record as “binds”.

B3: GFP-CC2-LIR1 (NBR1 aa685-aa757) (domain or fragment, UniProt Q14596 685-757, looked up)
chain: LGNEKEEIIHIAEEEAVMEEEEDEEDEEEEDELKDEVQSQSSASSEDYIIILPECFDTSRPLGDSMYSSALSQ
notes: the methods name the purified protein GST-GFP-CC2-LIR1 and give two ways of elution (TEV cleavage or glutathione) without saying which was used; also called GST-GFP-CC2-LIR1; source: E. coli Rosetta pLysS, purified (GSH beads, SEC); not shown: GFP, N-terminal, kept
Regarding B3, the binding result in assay [2] is given as “binds”.

B4: GST-N-domain (aa420-506 of TAX1BP1) (domain or fragment, UniProt Q86VP1 420-506, looked up)
chain: DQDKTDTLEHELRREVEDLKLRLQMAADHYKEKFKECQRLQKQINKLSDQSANNNNVFTKKTGNQQKVNDASVNTDPATSASTVDVK
On to B4, for which the binding result in assay [3] was “binds”.

These data come from PMC11611905, “Recruitment of autophagy initiator TAX1BP1 advances aggrephagy from cargo collection to sequestration” (The EMBO Journal, 2024).
